Sequences and labels used below:
B1: Ribonuclease inhibitor (Homo sapiens), P13489 (parent)
chain: MSLDIQSLDIQCEELSDARWAELLPLLQQCQVVRLDDCGLTEARCKDISSALRVNPALAELNLRSNELGDVGVHCVLQGLQTPSCKIQKLSLQNCCLTGAGCGVLSSTLRTLPTLQELHLSDNLLGDAGLQLLCEGLLDPQCRLEKLQLEYCSLSAASCEPLASVLRAKPDFKELTVSNNDINEAGVRVLCQGLKDSPCQLEALKLESCGVTSDNCRDLCGIVASKASLRELALGSNKLGDVGMAELCPGLLHPSSRLRTLWIWECGITAKGCGDLCRVLRAKESLKELSLAGNELGDEGARLLCETLLEPGCQLESLWVKSCSFTAACCSHFSSVLAQNRFLLELQISNNRLEDAGVRELCQGLGQPGSVLRVLWLADCDVSDSSCSSLAATLLANHSLRELDLSNNCLGDAGILQLVESVRQPGCLLEQLVLYDIYWSEEMEDRLQALEKDKPSLRVIS

The source of these data is IntAct's records for PubMed 10413501.

Variants of B1 are the subject of one assay. Conditions: with rnas1_bovin RNASE1, P61823.
Sequence of rnas1_bovin RNASE1, P61823 (P61823 whole entry): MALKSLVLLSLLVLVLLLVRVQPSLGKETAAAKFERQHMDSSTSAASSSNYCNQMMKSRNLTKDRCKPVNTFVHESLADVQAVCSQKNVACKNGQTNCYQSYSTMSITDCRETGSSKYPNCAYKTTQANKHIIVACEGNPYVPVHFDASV
For MSLDIQSLDIQCEELSDARWAELLPLLQQCQVVRLDDCGLTEARCKDISSALRVNPALAELNLRSNELGDVGVHCVLQGLQTPSCKIQKLSLQNCCLTGAGCGVLSSTLRTLPTLQELHLSDNLLGDAGLQLLCEGLLDPQCRLEKLQLEYCSLSAASCEPLASVLRAKPDFKELTVSNNDINEAGVRVLCQGLKDSPCQLEALKLESCGVTSDNCRDLCGIVASKASLRELALGSNKLGDVGMAELCPGLLHPSSRLRTLWIWECGITAKGCGDLCRVLRAKESLKELSLAGNELGDEGARLLCETLLEPGCQLESLWVKSCSFTAACCSHFSSVLAQNRFLLELQISNNRLEDAGVRELCQGLGQPGSVLRVLWLADCDVSDSSCSSLAATLLANHSLRELDLSNNCLGDAGILQLVESVRQPGCLLEQLVLYDIFWSEEMEDRLQALEKDKPSLRVIS [Y438F], the “effect of a mutation on the interaction” value is “decreasing interaction”.

The variants in the next assay derive from B1. The conditions noted are these: with rnas1_bovin RNASE1, P61823. The source holds these as a separate data set.
Regarding MSLDIQSLDIQCEELSDARWAELLPLLQQCQVVRLDDCGLTEARCKDISSALRVNPALAELNLRSNELGDVGVHCVLQGLQTPSCKIQKLSLQNCCLTGAGCGVLSSTLRTLPTLQELHLSDNLLGDAGLQLLCEGLLDPQCRLEKLQLEYCSLSAASCEPLASVLRAKPDFKELTVSNNDINEAGVRVLCQGLKDSPCQLEALKLESCGVTSDNCRDLCGIVASKASLRELALGSNKLGDVGMAELCPGLLHPSSRLRTLWIWECGITAKGCGDLCRVLRAKESLKELSLAGNELGDEGARLLCETLLEPGCQLESLWVKSCSFTAACCSHFSSVLAQNRFLLELQISNNRLEDAGVRELCQGLGQPGSVLRVLWLADCDVSDSSCSSLAATLLANHSLRELDLSNNCLGDAGILQLVESVRQPGCLLEQLVLFDIYWSEEMEDRLQALEKDKPSLRVIS [Y435F], the “effect of a mutation on the interaction” value is “decreasing interaction”.
